From a protein production outcome set (Wang et al. 2014)

Test: label from the status in PepcDB records
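Note: failed if final PepcDB status was selected cloned or expressed and not failed if soluble or beyond.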

Row | Sequence | protein production
1 | MKEKDKWIKNFRTRMEGYSEPAPADLWEQLEKELDTVPKVIPMWRRWQAVAAVALLVVVSSLTVWFWQSPSANYLEKQSAELNVMHEPDELVPGSITPEQPMALVVPAARSGKKQHVKVGGVAKAEALAAEQEVLLNKEVEEIQIEENYIEEQKEESVIVEQKQQKQAGRSSYSAAKTNYAYVAPHRKKDRNWSVGLSTGNGTFSSSTSMDGYLPLPNGTRNATMNSAYGVETRAEIDKLVQFNNLSEGKDAQSDIKYRMPVTFGASLRFDLSDDWAVETGVTYTQLSSETRSGTEKNNYGWEEKLHYVGIPLKVNRNIWSNKRFEVYASAGGAVEKCVSGKRSIIGSVSTSNAGKDEQFSGGEENVKVKPLQWSLSAAAGAQFKITEKLGIYAEPGVVYYFDDGSNVNTIRKEHPFNFNIQLGVRFTLPK | failed
2 | MKEKVVSLAQDLIRRPSISPNDEGCQQIIAERLEKLGFQIEWMPFNDTLNLWAKHGTSEPVIAFAGHTDVVPTGDENQWSSPPFSAEIIDGMLYGRGAADMKGSLAAMIVAAEEYVKANPNHKGTIALLITSDEEATAKDGTIHVVETLMARDEKITYCMVGEPSSAKNLGDVVKNGRRGSITGNLYIQGIQGHVAYPHLAENPIHKAALFLQELTTYQWDKGNEFFPPTSLQIANIHAGTGSNNVIPAELYIQFNLRYCTEVTDEIIKQKVAEMLEKHNLKYRIEWNLSGKPFLTKPGKLLDSITSAIEETIGITPKAETGGGTSDGRFIALMGAEVVEFGPLNSTIHKVNECVSVEDLGKCGEIYHKMLVNLLDS | not failed
3 | MKELIKVIAFDADDTLWSNEPFFQEVEKQYTDLLKPYGTSKEISAALFQTEMNNLQILGYGAKAFTISMVETALQISNGKIAADIIRQIVDLGKSLLKMPIELLPGVKETLKTLKETGKYKLVVATKGDLLDQENKLERSGLSPYFDHIEVMSDKTEKEYLRLLSILQIAPSELLMVGNSFKSDIQPVLSLGGYGVHIPFEVMWKHEVTETFAHERLKQVKRLDDLLSLLG | not failed
4 | MKELTVPDTTPLLPIVDPFEQQDSEGPDSTKVYPFYRNLAEGKLTMQRCKSCGRIFYPPQAMCKHCNSTDYEWVEVPKRGKIHAFSALLLGFPMVIEEFAPFVIAVARFGDYPENGVQIVGAMFDVDYSELSIGDEVEWEILKIKGPGDKVRYWYHFRKVLEHHHHHH | failed
5 | MKEQSYGKFAKFLHWVMALMIIVLIAVGTYMAGLDKADPNKMLLVGMHKSFGVIFMQFAILRVIWSRLNNSPKLPDVLASWEKLLSKTITGSLYLLMLAIPFSGYAMTNLFGYPVSLFGLIDLPVLFGKNTEMALLAKQAHFLLVYTLMAALFAHITGALKHRFLDKPEADVLPRMMPIKPRI | failed
6 | MKERILQEIKTRVNRKSWELWFSSFDVKSIEGNKVVFSVGNLFIKEWLEKKYYSVLSKAVKVVLGNDATFEITYEAFEPHSSYSEPLVKKRAVLLTPLNPDYTFENFVVGPGNSFAYHAALEVAKHPGRYNPLFIYGGVGLGKTHLLQSIGNYVVQNEPDLRVMYITSEKFLNDLVDSMKEGKLNEFREKYRKKVDILLIDDVQFLIGKTGVQTELFHTFNELHDSGKQIVICSDREPQKLSEFQDRLVSRFQMGLVAKLEPPDEETRKSIARKMLEIEHGELPEEVLNFVAENVDDNLRRLRGAIIKLLVYKETTGKEVDLKEAILLLKDFIKPNRVKAMDPIDELIEIVAKVTGVPREEILSNSRNVKALTARRIGMYVAKNYLKSSLRTIAEKFNRSHPVVVDSVKKVKDSLLKGNKQLKALIDEVIGEISRRALSGLEHHHHHH | not failed
7 | MKERKKKYVALWQVMQRECRRLVSRPLYLFCMVIAPLFCYLFFTTLMDSGLPQNLPAGVVDMDDSSTSRNIVRNLDAFSQTGVVAHYSNVTDARIAVQEGKIYGFFYIPKGLSAEAQSQRQPKISFYTNYSYLIAGSLLFRDMKMMGELTAGSAARSVLYAKGATEDQAMGFLQPIVIDTHPLNNPWLNYSVYLCNTLIPGVLMLLIFMVTVYSIGVEIKDRTAREWLRMSNNSIYIALAGKLLPHTVVFFIMGIFYNVYLYGFLHFPCNSGIFPMIFATLCLVLASQCCGIVMIGTLPTLRLGLSFASLWGVISFSISGFSFPVMAMNPVLQALSNLFPLRHYFLIYVDQALNGYSMAYSWSNYMALLIFMMLPFFVVHRLKEALVYYKYIP | failed
8 | MKESRNTLNSSELNTTTSWSKHDTHWVLSLFGTAVGAGILFLPINLGIGGFWPLVAMAFLAFPMTYLAHRGLARFVLSSKIKNADFTDVVEEHFGAKAGRSISLLYFLSIFPILLIYGVGITNTVDSFMVNQAGMEALPRELLSGVLVFALIAIMMAGEKVMLRAFAVMVYPLVAILAFLSFYLMPNWTMPVLDTPDMGAFASTMWLAVPVVIFSFSHAAAISSFANVQRRHYGDDADAKAELILRCTSIMLIAFVLLFVFSCVLALSPEQLAQAKAQNVSVLSYLANATDNPFIATLGPLVAFVAITSSFLGHFLGARESLNGLITKHSNLSETRVDRISVVVLFLSIWAAAIMNPSILGMMEALSGPVIAMILFIMPMLAVHKIESMKQYRGKLSTYFVLITGIVAVSALVFSLLS | not failed
9 | MKETRGYGGDAPFCTRLNHSYTGMWAPERSAEARGNLTRPPGSGEDCGSVSVAFPITMLLTGFVGNALAMLLVSRSYRRRESKRKKSFLLCIGWLALTDLVGQLLTTPVVIVVYLSKQRWEHIDPSGRLCTFFGLTMTVFGLSSLFIASAMAVERALAIRAPHWYASHMKTRATRAVLLGVWLAVLAFALLPVLGVGQYTVQWPGTWCFISTGRGGNGTSSSHNWGNLFFASAFAFLGLLALTVTFSCNLATIKALVSRCRAKATASQSSAQWGRITTETAIQLMGIMCVLSVCWSPLLIMMLKMIFNQTSVEHCKTHTEKQKECNFFLIAVRLASLNQILDPWVYLLLRKILLRKFCQENPAVSS | failed
10 | MKEVIAQNAKLSADDLKEILPKANKLEDFAFEKNEDSTISEVFQAKNGSENEGYIIKVSPKGFNGPIDMVVAIDKNREISGVKVLSQAETPGLGAKVEESSFSEKFKGLTIEDNIKIVKTSPSSQGEIQGITGATISSNAVSSGINDAISFYKENVLGEDLSKEKILNLSKINLEGDLKELTIELEEGIDKVSIVSNGEKEIGYAIEASEVGMYEEKPIKFALGISTGGIITGVQIIDHKETAGLGDLIEDENFLNSFIGVSSLDKLSVKENTNEIDLSVYGEVVNVDSISGATKSSMAIIKGITNVINFYNNNLSLEHHHHHH | not failed
11 | MKEVLFISEMERGRAEIESRVSNIKTTQDFGYREKIKEKKDASTAYAACISELLLEEKVKKIAVAYDFPIFYSNYLTEAGFTIVPVKSPFRKMRSVKGPEEIEAIKYAQMAGEKAMEAAITLIADAEEKDGVLYFEGQVLTGAKVNSVIDHTLLDFGCEAEETIVSCGEDTSNPHGTTEGPLRANAPIILDIFPRSKKKRYFADMTRTVLRGEASEKLKEMYETVLVAQQKALEMVKPGIHSSEIHRAVCDLFEARGYHTYRSGSKAGFTHSTGHGVGLDIHELPSVGESGVLLETGNVITIEPGLYYPGIGGIRLEDMVLVTKTGYENFTGLEKKFVLKSFYNLEHHHHHH | failed
12 | MKFDNYIFDFDGTLADTKKCGEVATQSAFKACGLTEPSSKEITHYMGIPIEESFLKLADRPLDEAALAKLIDTFRHTYQSIEKDYIYEFAGITEAITSLYNQGKKLFVVSSKKSDVLERNLSAIGLNHLITEAVGSDQVSAYKPNPEGIHTIVQRYNLNSQQTVYIGDSTFDVEMAQHAGVPSAAVTWGAHDARSLLHSNPDFIINDPSEINTVL | failed
13 | MKFKTIIKASYSIIFLSFQKVLHWEHIKFTAFKNLLSVSTKILIDKSSSVKFAGKICTESNVELKALNGGKLFIAENVFINSNSIVVALDNIHIGSNTLIGPGVLIFDHDHDFEKDKNSGTKNGRHFVTKPIRIESDVWIGGNSVILKGVTIGKGAVIAAGSIVLKDVEPYCLYAGNPAKKIRSY | failed
14 | MKFKTRDLVLIPLFTAMTIIGAFIKIPVGVVPINLQFLFTALSGVLLGGALGAVSQILYVALGLIGLPVFTSGGGLSYIFTPTFGYLIGYILAAFIIGKITHSRKPKFTTIFFSCILGLIAVYFIGTTYLYIILNYVAGKNVSIIASIKLGVLMFIPGDIVKCIITALLGSRILPILNKTSLNN | failed
15 | MKFLVENLNGSSFELEVDYRDTLLVVKQKIERSQHIPVSKQTLIVDGIVILREDLTVEQCQIVPTSDIQLEVSSDDDNPNHNDCDQKPQTEQSPALPLVSAEEYFERQDWPLTAEELRQIYSYRPEHEG | failed
16 | MKFPGQRKSKHYFPVKTRDPLLEQLTQQPQPFATYISGIDQTLVDIEAKVEDELLSRYGLPKGNSTLINDEQAHTLYTELKQNGLISDEFAGGTIGNTVHNYSILADDRSVLFGVMSQNIEVGSYAYRYLCNTSSKVDLNYLQPVDGPIGRCFTLISDCGERTFAISKGAMDKLTPEYIDKDIVQGSSALVLTAYLMRASGGDRITDAAMCAIEYAKAAEVPVVLTLGTRFLIEEDPIWWQNFIKEHVTILAMNEDEGEALTGFRDPLLASEKALEWCDMVLTTAGPIGLYTAGYTDDAEKRETSHTLLPGAIPEFNRYEFSRPKLKSDCENPIKVYAHISPYMGGPEKIGNTNGAGDGALSALLHDLAANTFHKTNVPGSSKHKRDGLCYSSFSQICKYANRVAYEVLAQHSPRLSRGLPEREDSLEESYWER | failed
17 | MKFRTLLVVNKVVVFAKLLSVLQKVEKTAFLILCSEADEEIRLVTKADAFNGLYTSALLRKSEFFEDYRIESKYHNLIGLEFQLSAFEDAIRASSNAAGVIMKLSKKEQACISFHIQTLTSNIIQDVPVRVITPTQIEELAEPNLPPCSGVVLSPLQKIAILIEKFRHVSQSIQLTLQSTQAAELHIKCHSETLEVETCIKGLKIVTLNSEESSSEIEQSTSASVDGRHLSKAMFAAYLIPQRAFCCKLSILNHGNIHWIH | failed
18 | MKFSEECRSAAAEWWEGSFVHPFVQGIGDGTLPIDRFKYYVLQDSYYLTHFAKVQSFGAAYAKDLYTTGRMASHAQGTYEAEMALHREFAELLEISEEERKAFKPSPTAYSYTSHMYRSVLSGNFAEILAALLPCYWLYYEVGEKLLHCDPGHPIYQKWIGTYGGDWFRQQVEEQINRFDELAENSTEEVRAKMKENFVISSYYEYQFWGMAYRKEGWSDSAIKEVEECGASRHNG | not failed
19 | MKFSVLMSLYIKENPQFLRECFESLVAQTRQADEIVLVFDGVVTPDLEFVVTEFETKLPLKLVKLPQNRGLGKALNEGLLHCDYDWVFRMDTDDICVPDRFEKQVAFIEQHPESIIFGGQIAEFGKNVNDIVAYRNVPTSAQEIIKFTQKRCPFNHMTVAYQKSAVINCGGYEDLQEDYYLWIKLVAQGLYMANLPDILVYARVGNGMVLEHHHHHH | not failed
20 | MKFTQRLSLRVRLTLIFLILASVTWLLSSFVAWKQTTDNVDELFDTQLMLFAKRLSTLDLNEINAADRMAQTPNKLKHGHVDDDALTFAIFTHDGRMVLNDGDNGEDIPYSYQREGFADGQLVGEDDPWRFVWMTSPDGKYRIVVGQEWEYREDMALAIVAGQLIPWLVALPIMLIIMMVLLGRELAPLNKLALALRMRDPDSEKPLNATGVPSEVRPLVESLNQLFARTHAMMVRERRFTSDAAHELRSPLTALKVQTEVAQLSDDDPQARKKALLQLHSGIDRATRLVDQLLTLSRLDSLDNLQDVAEIPLEDLLQSSVMDIYHTAQQAKIDVRLTLNAHGIKRTGQPLLLSLLVRNLLDNGPGVTPEALARIGERFYRPPGQTATGSGLGLSIVQRIAKLHDMNVEFGNAEQGGFEAKVSW | failed
